The values that follow come from PMC10917784 (Nature Communications, 2024).

What all share (details): one partner purified
The target of test [1] is T1, CD38 on tumor cell lines (Homo sapiens, UniProt P28907).
T1 construct: CD38 on the surface of CD38high (Daudi, Raji) and CD38low (NCI-H929, KMS-12-BM) cell lines; source: endogenous, on Daudi, Raji, NCI-H929 and KMS-12-BM cells
As to the kind of experiment: flow cytometry on cells; KMS-12-BM cells, increasing antibody concentrations, 4 °C, 30 min, labelled anti-human IgG secondary; Kd from fit of RFI. (In general: In flow cytometry, cells or beads pass a laser one at a time.)

In test [2] the target is T1, CD38 on tumor cell lines. Description: flow cytometry on cells; NCI-H929 cells, increasing antibody concentrations, 4 °C, 30 min, labelled anti-human IgG secondary; Kd from fit of RFI.
Test [3] has as its target T1, CD38 on tumor cell lines. Description: flow cytometry on cells; Daudi cells, increasing antibody concentrations, 4 °C, 30 min, labelled anti-human IgG secondary; Kd from fit of RFI.
For test [4], the target named is T1, CD38 on tumor cell lines. As to the kind of experiment: flow cytometry on cells; Raji cells, increasing antibody concentrations, 4 °C, 30 min, labelled anti-human IgG secondary; Kd from fit of RFI.

B1: daratumumab (antibody, V domains shown)
VH: EVQLLESGGGLVQPGGSLRLSCAVSGFTFNSFAMSWVRQAPGKGLEWVSAISGSGGGTYYADSVKGRFTISRDNSKNTLYLQMNSLRAEDTAVYFCAKDKILWFGEPVFDYWGQGTLVTVSS
VL: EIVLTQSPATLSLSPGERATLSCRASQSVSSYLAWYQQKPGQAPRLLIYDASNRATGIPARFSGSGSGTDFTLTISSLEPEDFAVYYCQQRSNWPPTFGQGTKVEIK
notes: whole antibody in the assay; the PDB entry holds only part of it; also called Darzalex; source: bought: Janssen Biotech Inc
Regarding B1, the Kd with CD38 on tumor cell lines [1] was 0.138 nM; with CD38 on tumor cell lines [2], 0.506 nM; with CD38 on tumor cell lines [3], 0.258 nM; in the test with CD38 on tumor cell lines [4], 0.33 nM.

What is called Kd is a measure of binding affinity in units of concentration. Lower therefore signals tighter binding.
